Columns and labels:
E. cloacae [1] = experiment: Checkerboard synergy assay (FICI) against E. cloacae; format: cell-based, Enterobacter cloacae; settings: E. cloacae ATCC 13047
Method: Any known method to assess MIC may be used.
Checkerboards are constructed by first preparing columns of e.g., a 96-well polypropylene microtiter plate, wherein each well has the same amount of antibiotic diluted 2-fold along the horizontal axis. […] Bacteria are added to the drug combinations at concentrations of 1×10^5 […] in CAA, for example, with or without human serum or pulmonary surfactant. […] Summation fractional inhibitory concentrations (ΣFICs) are calculated for each drug and the minimum ΣFIC value (ΣFICmin) is used to determine the effect of the Chp peptide/antibiotic combination.
GN370 was further tested in combination with up to seven additional antibiotics (in addition to meropenem) against a variety of bacterial strains, including P. aeruginosa, A. baumannii, E. coli, E. cloacae, and K. pneumoniae. GN370 and the subject antibiotics were tested in a checkerboard assay format, and FICI values were determined, wherein ≤0.5 indicates synergy, >0.5-≤1 indicates additive; and >1 indicates indifferent.

E. cloacae [2] = experiment: MIC by broth microdilution against E. cloacae; format: cell-based, Enterobacter cloacae
K. pneumoniae = experiment: MBEC against K. pneumoniae biofilm; format: cell-based, Klebsiella pneumoniae; settings: MDR and XDR K. pneumoniae (11)
A. baumannii [3] = experiment: MBEC against A. baumannii biofilm; format: cell-based, Acinetobacter baumannii; settings: MDR and XDR A. baumannii (22)
Burkholderia cepacia = experiment: MIC by broth microdilution against Burkholderia cepacia; format: cell-based; settings: N 9
Method: (§1) MIC values were determined by broth microdilution against clinical isolates and resistant isolates from a wide range of bacterial species, including isolates from the CDC Antibiotic Resistance bank, including the GN ESKAPE pathogens and E. coli, including carbapenem-resistant Enterobacteriaciae, Acinetobacter, and Pseudomonas.

P. aeruginosa = experiment: SEM and TEM imaging of membrane damage; format: cell-based, Pseudomonas aeruginosa; settings: prior to pore formation and lysis
Method: Additionally, the mechanism of action of both the Chp peptides and the lysins and/or lysin-AMP constructs disclosed herein may be evaluated through the use of Scanning Electron Microscopy (SEM) and Transmission Electron Microscopy (TEM) techniques. Due to the rapid permeabilization and depolarization of bacterial membranes when contacted with Chp peptides, as discussed above, membrane damage may be visualized through SEM and TEM. […] TEM and SEM images taken approximately 2 minutes after Chp peptide (8 μg/mL) contact with P. aeruginosa show the formation of multiple bulges on the bacterial membrane, as well as the appearance of pore formation and degradation of the cellular membrane. TEM and SEM images taken approximately 5 minutes after Chp peptide (8 μg/mL) contact with P. aeruginosa show continued formation of membrane bulges, along with degradation of the cellular membrane, condensation of electron-dense cytoplasmic material, formation of spheroplasts, and pore formation. TEM and SEM images taken approximately 20 minutes after Chp peptide (8 μg/mL) contact with P. aeruginosa show multiple instances of pore formation and the appearance of ghost cells, empty of intracellular content.

A. baumannii [4] = experiment: MIC by broth microdilution against A. baumannii; format: cell-based, Acinetobacter baumannii
A. baumannii [5] = experiment: GN370 time-kill assay, A. baumannii; format: cell-based, Acinetobacter baumannii; settings: for Log10 CFU/mL: A. baumannii ATCC BAA 747
Method: (§2) A kinetic analysis of GN370 bactericidal activity was performed using a time-kill assay format in which CFU reductions of each target organism (P. aeruginosa, K. pneumoniae, A. baumannii, E. coli, and E. cloacae) were measured over 24 hours at 37° C. […] Bactericidal activity was defined as CFU reductions of ≥3-log 10 CFU/mL as compared to the inoculum at the 24-hour time point.

Enterobacter aerogenes = experiment: MIC by broth microdilution against Enterobacter aerogenes; format: cell-based; settings: N 1
Method: as §1

[6] = tested on: A. baumannii (ATCC BAA-747); experiment: microbe, parasite or virus in culture; format: cell-based, Acinetobacter baumannii
E. coli = experiment: GN370 time-kill assay, E. coli; format: cell-based, Escherichia coli; settings: for Log10 CFU/mL: E. coli AR-128
Method: as §2, with “point. See Methods for Determining Bactericidal Activity of Antimicrobial Agents; Approved Guideline, NCCLS document M26-A, CLSI 1999 (Wayne, PA).” for “point.”

[7] = Enterobacter cloacae, AR Bank, N 7
[8] = Enterobacter cloacae, Weill Cornell, N 30
[9] = Enterobacter cloacae, all isolates, N 37
[10] = Acinetobacter baumannii, AR Bank, N 41
[11] = Acinetobacter baumannii, Weill Cornell, N 26
[12] = Acinetobacter baumannii, all isolates, N 67

Molecule: C[C@@H](O)[C@H]1C(=O)N2C(C(=O)O)=C(S[C@@H]3CN[C@H](C(=O)N(C)C)C3)[C@H](C)[C@H]12 [meropenem, reference compound]
- FICI of the antibiotic with GN370 (E. cloacae [1]): 0.531

B1: GN370: lysin-AMP construct, SEQ ID NO: 149: MIDR, FIRL and NPTH moieties N-terminal to GN202 lysin (protein)
chain: MIDRFIRLNPTHGPRRPRRPGRRAPVRTSQRGIDLIKSFEGLRLSAYQDSVGVWTIGYGTTRGVTRYMTITVEQAERMLSNDIQRFEPELDRLAKVPLNQNQWDALMSFVYNLGAANLASSTLLDLLNKGDYQGAADQFPHWVNAGGKRLDGLVKRRAAERALFLEPLS
modifications: GN370 lysin
- MIC (E. cloacae [2]; E. cloacae ATCC 13047 (head of Table 19)): 2 µg/mL
- MIC (E. cloacae [2]; E. cloacae ATCC 29941): (MIC = 2 μg/mL)
- MIC90 (E. cloacae [2]; E. cloacae clinical and resistant isolates): 4 µg/mL
- MIC50 (E. cloacae [2]; [7]): 1 µg/mL
- MIC90 (E. cloacae [2]; [7]): 4 µg/mL
- MIC Range (E. cloacae [2]; [7]): 0.25 to 8 µg/mL
- MIC50 (E. cloacae [2]; [8]): 2 µg/mL
- MIC90 (E. cloacae [2]; [8]): 4 µg/mL
- MIC Range (E. cloacae [2]; [8]): 0.25 to 8 µg/mL
- MIC50 (E. cloacae [2]; [9]): 1 µg/mL
- MIC90 (E. cloacae [2]; [9]): 4 µg/mL
- MIC Range (E. cloacae [2]; [9]): 0.016 to 8 µg/mL
- MBEC50 (K. pneumoniae): 1 µg/mL
- MBEC90 (K. pneumoniae): 2 µg/mL
- MBEC Range (K. pneumoniae): 0.5 to 4 µg/mL
- Number of isolates at MBEC 0.5 μg/mL (K. pneumoniae): 3
- Number of isolates at MBEC 1 μg/mL (K. pneumoniae): 3
- Number of isolates at MBEC 2 μg/mL (K. pneumoniae): 4
- Number of isolates at MBEC 4 μg/mL (K. pneumoniae): 1
- MBEC50 (A. baumannii [3]): 1 µg/mL
- MBEC90 (A. baumannii [3]): 2 µg/mL
- MBEC Range (A. baumannii [3]): 0.5 to 2 µg/mL
- Number of isolates at MBEC 0.5 μg/mL (A. baumannii [3]): 2
- Number of isolates at MBEC 1 μg/mL (A. baumannii [3]): 12
- Number of isolates at MBEC 2 μg/mL (A. baumannii [3]): 8
- MIC50 (Burkholderia cepacia): >64 µg/mL
- MIC90 (Burkholderia cepacia): >64 µg/mL
- MIC Range (Burkholderia cepacia): >64 µg/mL
- membrane damage seen by TEM and SEM (P. aeruginosa): more extensive and larger membrane blebs
- MIC (A. baumannii [4]; A. baumannii ATCC BAA 747 (Table 27)): (MIC = 1 μg/mL)
- MIC (A. baumannii [4]; A. baumannii ATCC BAA-747 (head of Table 19)): 1 µg/mL
- MIC90 (A. baumannii [4]; A. baumannii clinical and resistant isolates): 1 µg/mL
- MIC50 (A. baumannii [4]; [10]): 1 µg/mL
- MIC90 (A. baumannii [4]; [10]): 1 µg/mL
- MIC Range (A. baumannii [4]; [10]): 0.064 to 2 µg/mL
- MIC50 (A. baumannii [4]; [11]): 1 µg/mL
- MIC90 (A. baumannii [4]; [11]): 1 µg/mL
- MIC Range (A. baumannii [4]; [11]): 0.25 to 1 µg/mL
- MIC50 (A. baumannii [4]; [12]): 1 µg/mL
- MIC90 (A. baumannii [4]; [12]): 1 µg/mL
- MIC Range (A. baumannii [4]; [12]): 0.0625 to 2 µg/mL
- Log10 CFU/mL (A. baumannii [5]; 0.2x MIC, 1 hr): 3.8 Log10 CFU/mL
- Log10 CFU/mL (A. baumannii [5]; 0.2x MIC, 3 hr): 4.0 Log10 CFU/mL
- Log10 CFU/mL (A. baumannii [5]; 0.2x MIC, 24 hr): 5.8 Log10 CFU/mL
- Log10 CFU/mL (A. baumannii [5]; 1x MIC, 1 hr): 1.5 Log10 CFU/mL
- Log10 CFU/mL (A. baumannii [5]; 1x MIC, 3 hr): 1.5 Log10 CFU/mL
- Log10 CFU/mL (A. baumannii [5]; 1x MIC, 24 hr): 1.5 Log10 CFU/mL
- Log10 CFU/mL (A. baumannii [5]; 2x MIC, 1 hr): 1.5 Log10 CFU/mL
- Log10 CFU/mL (A. baumannii [5]; 2x MIC, 3 hr): 1.5 Log10 CFU/mL
- Log10 CFU/mL (A. baumannii [5]; 2x MIC, 24 hr): 1.5 Log10 CFU/mL
- Log10 CFU/mL (A. baumannii [5]; 5x MIC, 1 hr): 1.5 Log10 CFU/mL
- Log10 CFU/mL (A. baumannii [5]; 5x MIC, 3 hr): 1.5 Log10 CFU/mL
- Log10 CFU/mL (A. baumannii [5]; 5x MIC, 24 hr): 1.5 Log10 CFU/mL
- concentration with bactericidal activity (≥3-log 10 CFU/mL reduction at 24 hours) (A. baumannii [5]; A. baumannii, 37° C.): ≥ 1 ×MIC
- MIC Range (Enterobacter aerogenes): 1 µg/mL
- change in MIC over 28-day serial passage ([6]; A. baumannii (ATCC BAA-747)): No change
- MIC ([6]; A. baumannii ATCC BAA-747, target organism of serial passage study): 1 µg/mL
- Log10 CFU/mL (E. coli; 0.2x MIC, 24 hr): 8.4 Log10 CFU/mL
- Log10 CFU/mL (E. coli; 1x MIC, 1 hr): 4.4 Log10 CFU/mL
- Log10 CFU/mL (E. coli; 1x MIC, 3 hr): 2.5 Log10 CFU/mL
- Log10 CFU/mL (E. coli; 2x MIC, 1 hr): 4.4 Log10 CFU/mL
- Log10 CFU/mL (E. coli; 2x MIC, 3 hr): 2.2 Log10 CFU/mL
- Log10 CFU/mL (E. coli; 5x MIC, 1 hr): 3.0 Log10 CFU/mL
- concentration with bactericidal activity (≥3-log 10 CFU/mL reduction at 24 hours) (E. coli; E. coli, 37° C.): ≥ 1 ×MIC

— patent US20240181022A1, “AMURINS LYSINS, AND LYSIN-ANTIMICROBIAL PEPTIDE (AMP) CONSTRUCTS ACTIVE AGAINST GRAM-NEGATIVE BACTERIA” (priority 2021, published 2024)
